Substitutions are numbered along the chain they refer to.
Tests used:
[1] = molecular target: T1, RXFP1 G45W46-AA (Homo sapiens, UniProt Q9HBX9, G67A/W68A); test: cAMP activity assay (pCRE β-galactosidase reporter), transfected HEK293T cells; assay type: cell-based
T1 construct: transiently transfected human embryonic kidney (HEK) 293T cells expressing full-length RXFP1 and mutants; expressed in transfected cells; host or cells: HEK293T
T1 sequence (Q9HBX9 23-757 G67A/W68A limits assumed): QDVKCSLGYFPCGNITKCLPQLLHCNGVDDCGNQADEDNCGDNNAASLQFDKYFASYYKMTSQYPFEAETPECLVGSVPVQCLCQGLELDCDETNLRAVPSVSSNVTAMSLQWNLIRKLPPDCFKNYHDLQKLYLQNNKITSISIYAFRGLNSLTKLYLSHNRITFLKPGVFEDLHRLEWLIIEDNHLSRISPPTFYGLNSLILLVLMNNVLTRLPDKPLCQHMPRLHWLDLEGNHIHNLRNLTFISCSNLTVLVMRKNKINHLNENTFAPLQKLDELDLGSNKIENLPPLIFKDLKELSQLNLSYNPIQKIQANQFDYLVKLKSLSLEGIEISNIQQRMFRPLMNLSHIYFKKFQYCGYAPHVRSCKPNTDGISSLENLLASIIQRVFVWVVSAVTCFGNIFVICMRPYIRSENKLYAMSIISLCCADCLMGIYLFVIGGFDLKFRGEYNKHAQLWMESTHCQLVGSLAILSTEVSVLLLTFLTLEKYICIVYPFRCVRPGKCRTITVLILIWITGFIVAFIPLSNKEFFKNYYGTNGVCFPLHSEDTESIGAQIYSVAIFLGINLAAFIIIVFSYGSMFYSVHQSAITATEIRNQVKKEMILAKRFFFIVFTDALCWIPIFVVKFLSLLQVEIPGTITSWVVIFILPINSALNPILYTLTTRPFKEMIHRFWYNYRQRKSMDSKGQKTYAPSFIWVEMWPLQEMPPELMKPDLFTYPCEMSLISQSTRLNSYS
How it was run: (§1)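 Absorbance at 570 nm from β-galactosidase cleavage of chlorophenol red-β-D-galactopyranoside, expressed as percentage of the maximal 5 μM Forskolin response (mean ± s.e.m., ≥3 experiments in triplicate). Stimulant was H2 relaxin in minimal media containing 1% DMSO.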

[2] = molecular target: T2, RXFP1 M60A (Homo sapiens, UniProt Q9HBX9, M82A); test: as above; assay type: cell-based; conditions: construct M60A, ±s.e.m.
T2 construct: cells expressing full-length RXFP1 and mutants; expressed in transfected cells; host or cells: HEK293T
T2 sequence (Q9HBX9 23-757 M82A limits assumed): T1 sequence (Q9HBX9 23-757 G67A/W68A limits assumed) with A45G, A46W, M60A
How it was run: as §1

[3] = molecular target: T3, RXFP1 G41D42-AA (Homo sapiens, UniProt Q9HBX9, D64A/G63A); test: Eu-H2 relaxin saturation binding assay, transfected HEK293T cells; conditions: construct G41D42-AA, maximum H2 concentration 15 nM
T3 construct: transiently transfected human embryonic kidney (HEK) 293T cells expressing full-length RXFP1 and mutants; expressed in transfected cells; host or cells: HEK293T
T3 sequence (Q9HBX9 23-757 G63A/D64A limits assumed): T1 sequence (Q9HBX9 23-757 G67A/W68A limits assumed) with G41A, D42A, A45G, A46W

[4] = molecular target: T1, RXFP1 G45W46-AA; test: as above; conditions: construct G45W46-AA, maximum H2 concentration 15 nM

Question: Which results are given for “H2 relaxin: two-chain 6-kDa peptide hormone structurally related to insulin; recombinant human gene-2 H2 relaxin provided by Corthera”?
Answer: H2 relaxin-stimulated cAMP activity ([1]; G45A/W46A RXFP1): virtually unable to signal; H2 relaxin pEC50 ([1]; construct G45W46-AA, cAMP reporter): <6 (3); H2 relaxin pEC50 ([2]; cAMP reporter): 11.20±0.03 (4); H2 relaxin Emax ([2]; percentage of maximum response to 5 μM Forskolin): 118.2±6.51 (4) %; Kd [3]: > 20 nM; Kd [4]: > 20 nM
